From PMC3794620, “The Pyridoxal 5′-Phosphate (PLP)-Dependent Enzyme Serine Palmitoyltransferase (SPT): Effects of the Small Subunits and Insights from Bacterial Mimics of Human hLCB2a HSAN1 Mutations” (BioMed Research International, 2013)

Experiments:
[1] = target: T1, Sp SPT (Sphingomonas paucimobilis, UniProt Q93UV0, G385F); experiment: UV-visible titration, absorbance change at […] nm (external aldimine); format: binding; conditions: read-out: Kd ^L-ser
T1 construct: full-length soluble enzyme, pET28a, C-terminal His6 tag, E. coli BL21(DE3), Ni-NTA and gel filtration, homodimer ~90 kDa, PLP holoform
T1 sequence (Q93UV0 1-420 G385F): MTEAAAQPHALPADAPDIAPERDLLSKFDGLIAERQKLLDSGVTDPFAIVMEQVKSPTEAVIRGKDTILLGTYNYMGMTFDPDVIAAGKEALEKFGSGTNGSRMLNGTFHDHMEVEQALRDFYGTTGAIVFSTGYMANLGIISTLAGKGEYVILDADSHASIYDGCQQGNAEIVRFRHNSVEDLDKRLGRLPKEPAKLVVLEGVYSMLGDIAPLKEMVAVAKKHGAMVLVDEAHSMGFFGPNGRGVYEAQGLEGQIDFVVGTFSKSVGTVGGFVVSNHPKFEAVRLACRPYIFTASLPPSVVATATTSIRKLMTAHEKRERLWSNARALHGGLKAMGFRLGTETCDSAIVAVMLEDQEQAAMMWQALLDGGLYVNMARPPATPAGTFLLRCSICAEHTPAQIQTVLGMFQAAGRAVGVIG

[2] = target: T2, Sp SPT (Sphingomonas paucimobilis, UniProt Q93UV0); experiment: as above; format: binding; conditions: read-out: Kd ^L-ser
T2 construct: full-length soluble enzyme, pET28a, C-terminal His6 tag, E. coli BL21(DE3), Ni-NTA and gel filtration, homodimer ~90 kDa, PLP holoform
T2 sequence (Q93UV0 1-420): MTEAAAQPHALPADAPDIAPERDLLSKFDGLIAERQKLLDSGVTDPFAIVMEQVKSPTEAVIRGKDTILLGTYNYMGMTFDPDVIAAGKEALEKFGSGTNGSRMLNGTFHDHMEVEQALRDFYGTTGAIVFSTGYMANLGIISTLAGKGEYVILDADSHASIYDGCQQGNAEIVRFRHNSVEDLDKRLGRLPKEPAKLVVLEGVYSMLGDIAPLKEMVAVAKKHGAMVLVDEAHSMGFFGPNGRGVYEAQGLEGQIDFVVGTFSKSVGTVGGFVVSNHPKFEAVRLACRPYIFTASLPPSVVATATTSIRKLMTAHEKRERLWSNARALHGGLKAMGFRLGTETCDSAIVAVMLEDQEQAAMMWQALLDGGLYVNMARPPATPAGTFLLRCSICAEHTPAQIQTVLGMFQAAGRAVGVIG

[3] = target: T3, Sp SPT (Sphingomonas paucimobilis, UniProt Q93UV0, V246M); experiment: as above; format: binding; conditions: read-out: Kd ^L-ser
T3 construct: full-length soluble enzyme, pET28a, C-terminal His6 tag, E. coli BL21(DE3), Ni-NTA and gel filtration, homodimer ~90 kDa, PLP holoform
T3 sequence (Q93UV0 1-420 V246M): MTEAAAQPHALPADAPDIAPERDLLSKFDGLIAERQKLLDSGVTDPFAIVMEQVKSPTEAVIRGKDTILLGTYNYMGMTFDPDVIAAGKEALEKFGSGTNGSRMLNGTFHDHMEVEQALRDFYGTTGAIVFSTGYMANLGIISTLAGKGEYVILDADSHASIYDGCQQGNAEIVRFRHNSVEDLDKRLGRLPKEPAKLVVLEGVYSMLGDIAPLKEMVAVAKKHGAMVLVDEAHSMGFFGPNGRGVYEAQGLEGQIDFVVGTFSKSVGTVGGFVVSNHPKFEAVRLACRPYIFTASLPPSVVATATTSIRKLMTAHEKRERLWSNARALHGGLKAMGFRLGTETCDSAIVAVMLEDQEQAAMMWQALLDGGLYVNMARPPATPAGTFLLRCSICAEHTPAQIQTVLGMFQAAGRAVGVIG

[4] = target: T2, Sp SPT; experiment: UV-visible spectroscopy, quinonoid peak at ~[…] nm; format: binding; conditions: 1.5 mM analogue, 50 mM L-serine, 40 μM enzyme, 25 °C, 15 min
[5] = target: T2, Sp SPT; experiment: UV-visible spectroscopy of internal aldimine; format: binding; conditions: covalent (imine to Lys265), 40 μM enzyme, 20 mM potassium phosphate pH 7.5, 150 mM NaCl, 25 °C
[6] = test system: T4, CCCCCCCCCCCCCCCC(=O)SCCNC(=O)CCNC(=O)[C@H](O)C(C)(C)COP(=O)(O)OP(=O)(O)OC[C@H]1O[C@@H](n2cnc3c(N)ncnc32)[C@H](O)[C@@H]1OP(=O)(O)O; experiment: DTNB assay of CoASH release, Michaelis-Menten fit; format: biochemical, Sphingomonas paucimobilis; conditions: co-substrate L-serine
T4 construct: full-length soluble enzyme, pET28a, C-terminal His6 tag, E. coli BL21(DE3), Ni-NTA and gel filtration, homodimer ~90 kDa, PLP holoform
Excerpt: (§1) DTNB assay of CoASH release, Michaelis-Menten fit on Sp SPT

[7] = test system: T5, N[C@@H](CO)C(=O)O; experiment: DTNB assay of CoASH release, Michaelis-Menten fit; format: biochemical, Sphingomonas paucimobilis; conditions: co-substrate palmitoyl-CoA
T5 construct: full-length soluble enzyme, pET28a, C-terminal His6 tag, E. coli BL21(DE3), Ni-NTA and gel filtration, homodimer ~90 kDa, PLP holoform
Excerpt: as §1

[8] = substrate: N[C@@H](CO)C(=O)O; experiment: DTNB assay of CoASH release, Michaelis-Menten fit; format: biochemical, Sphingomonas paucimobilis; conditions: co-substrate palmitoyl-CoA
Excerpt: as §1

[9] = substrate: CCCCCCCCCCCCCCCC(=O)SCCNC(=O)CCNC(=O)[C@H](O)C(C)(C)COP(=O)(O)OP(=O)(O)OC[C@H]1O[C@@H](n2cnc3c(N)ncnc32)[C@H](O)[C@@H]1OP(=O)(O)O; experiment: DTNB assay of CoASH release, Michaelis-Menten fit; format: biochemical, Sphingomonas paucimobilis; conditions: co-substrate L-serine
Excerpt: as §1

[10] = target: the molecule itself; experiment: SEC; size exclusion chromatography of the purified enzymes; data not shown

N[C@@H](CO)C(=O)O [L-serine]
Kd [1]: 4700 ± 100 µM | Kd [2]: 1100 ± 100 µM | Kd [3]: 1500 ± 100 µM

CCCCCCCCCCCCCCCC(=O)CSCCNC(=O)CCNC(=O)[C@H](O)C(C)(C)COP(=O)(O)OP(=O)(O)OC[C@H]1O[C@@H](n2cnc3c(N)ncnc32)[C@H](O)[C@@H]1OP(=O)(O)O [S-(2-oxoheptadecyl)-CoA]
UV-visible spectroscopy, quinonoid peak at ~495 nm [4]: Addition of the analogue to the PLP-L-serine external aldimine form of the wild-type SPT

Cc1ncc(COP(=O)(O)O)c(C=O)c1O [pyridoxal 5′-phosphate]
UV-visible spectroscopy of internal aldimine [5]: characteristic of the holo-, PLP-bound internal aldimine form of the enzyme

Sp SPT (Sphingomonas paucimobilis; G385F)
Km [6]: 52.2 ± 8.0 µM | kcat [6]: 41 ± 2.0 × 10^-2 s^-1 | kcat/Km [6]: 7850 M⁻¹ s⁻¹ | Km [7]: 3000 ± 500 µM | kcat [7]: 41 ± 2.0 × 10^-2 s^-1 | kcat/Km [7]: 136 M⁻¹ s⁻¹

Sp SPT (Sphingomonas paucimobilis; V246M)
Km [6]: 128.0 ± 10.0 µM | kcat [6]: 44 ± 1.2 × 10^-2 s^-1 | kcat/Km [6]: 3440 M⁻¹ s⁻¹ | Km [7]: 2500 ± 200 µM | kcat [7]: 44 ± 1.2 × 10^-2 s^-1 | kcat/Km [7]: 176 M⁻¹ s⁻¹

B1: Sp SPT (Sphingomonas paucimobilis) (protein)
chain: MTEAAAQPHALPADAPDIAPERDLLSKFDGLIAERQKLLDSGVTDPFAIVMEQVKSPTEAVIRGKDTILLGTYNYMGMTFDPDVIAAGKEALEKFGSGTNGSRMLNGTFHDHMEVEQALRDFYGTTGAIVFSTGYMANLGIISTLAGKGEYVILDADSHASIYDGCQQGNAEIVRFRHNSVEDLDKRLGRLPKEPAKLVVLEGVYSMLGDIAPLKEMVAVAKKHGAMVLVDEAHSMGFFGPNGRGVYEAQGLEGQIDFVVGTFSKSVGTVGGFVVSNHPKFEAVRLACRPYIFTASLPPSVVATATTSIRKLMTAHEKRERLWSNARALHGGLKAMGFRLGTETCDSAIVAVMLEDQEQAAMMWQALLDGGLYVNMARPPATPAGTFLLRCSICAEHTPAQIQTVLGMFQAAGRAVGVIG
notes: full-length soluble enzyme, pET28a, C-terminal His6 tag, E. coli BL21(DE3), Ni-NTA and gel filtration, homodimer ~90 kDa, PLP holoform
Km [8]: 1600 ± 90 µM | kcat [8]: 114 ± 2.0 × 10^-2 s^-1 | kcat/Km [8]: 712 M⁻¹ s⁻¹ | Km [9]: 35.6 ± 2.0 µM | kcat [9]: 114 ± 2.0 × 10^-2 s^-1 | kcat/Km [9]: 32000 M⁻¹ s⁻¹

B2: Sphingomonas paucimobilis serine palmitoyltransferase V246M (mimic of hLCB2a V359M) (enzyme)
chain: MTEAAAQPHALPADAPDIAPERDLLSKFDGLIAERQKLLDSGVTDPFAIVMEQVKSPTEAVIRGKDTILLGTYNYMGMTFDPDVIAAGKEALEKFGSGTNGSRMLNGTFHDHMEVEQALRDFYGTTGAIVFSTGYMANLGIISTLAGKGEYVILDADSHASIYDGCQQGNAEIVRFRHNSVEDLDKRLGRLPKEPAKLVVLEGVYSMLGDIAPLKEMVAVAKKHGAMVLVDEAHSMGFFGPNGRGMYEAQGLEGQIDFVVGTFSKSVGTVGGFVVSNHPKFEAVRLACRPYIFTASLPPSVVATATTSIRKLMTAHEKRERLWSNARALHGGLKAMGFRLGTETCDSAIVAVMLEDQEQAAMMWQALLDGGLYVNMARPPATPAGTFLLRCSICAEHTPAQIQTVLGMFQAAGRAVGVIG
modifications: PLP cofactor covalently bound as an imine to Lys265
notes: serine palmitoyltransferase of Sphingomonas paucimobilis with V246M, made on pET 28a/Sp SPT; The PDB entries are of the wild-type parent; also called Sp SPT V246M; SPT V246M
stoichiometry N [10]: 2

B3: Sphingomonas paucimobilis serine palmitoyltransferase G385F (mimic of hLCB2a I504F) (enzyme)
chain: MTEAAAQPHALPADAPDIAPERDLLSKFDGLIAERQKLLDSGVTDPFAIVMEQVKSPTEAVIRGKDTILLGTYNYMGMTFDPDVIAAGKEALEKFGSGTNGSRMLNGTFHDHMEVEQALRDFYGTTGAIVFSTGYMANLGIISTLAGKGEYVILDADSHASIYDGCQQGNAEIVRFRHNSVEDLDKRLGRLPKEPAKLVVLEGVYSMLGDIAPLKEMVAVAKKHGAMVLVDEAHSMGFFGPNGRGVYEAQGLEGQIDFVVGTFSKSVGTVGGFVVSNHPKFEAVRLACRPYIFTASLPPSVVATATTSIRKLMTAHEKRERLWSNARALHGGLKAMGFRLGTETCDSAIVAVMLEDQEQAAMMWQALLDGGLYVNMARPPATPAFTFLLRCSICAEHTPAQIQTVLGMFQAAGRAVGVIG
modifications: PLP cofactor covalently bound as an imine to Lys265
notes: serine palmitoyltransferase of Sphingomonas paucimobilis with G385F, made on pET 28a/Sp SPT; The PDB entries are of the wild-type parent; also called Sp SPT G385F; SPT G385F
stoichiometry N [10]: 2
